Assay results from patent US9526713B2, “Use of dencichine in preparation of drug for treating thrombocytopenia” (KUNMING SHENGHUO PHARMACEUTICAL (GROUP) CO., LTD., priority 2013, dated 2016).
Like-named read-outs stand apart in the source and are kept apart here.

Experiments:
ITP model mice [1] = format: in vivo, BALB/C mice; details: 5 mg/(kg·d) intragastric, 14 days; end of experiment
Description: (§1) Health BALB/C mice (body weight 18˜22 g) are randomly divided into six groups with 12 mice for each group:
Blank group, Model group, Prednisone Acetate Group, Dencichine (high dose, middle dose, and low dose) groups.
Modeling method: blood was taken from orbital vein of BALB/C Mice, followed by EDTA-Na2 Anticoagulation, and then platelets are separated and washed. The prepared platelet suspension solution was mixed uniformly with equal amount of complete Freund's adjuvant and incomplete Freund's adjuvant respectively. In the first week, antigen containing complete Freund's adjuvant is subcutaneously injected into hind paw, back and groin of the guinea pig. Injections are done for 4 times in total, with 5 spots for each injection and 100 μl for each spot. In the 6th week, non-anticoagulated whole blood was taken from the guinea pigs, and was centrifuged for 10 min under 3000 r/min to produce a supernate, which is the anti-mouse platelet serum (GP-APS) of the guinea pigs. The supernate was placed in a water bath (56° C.) for 30 min for complement inactivation, and then the inactivated supernate was diluted with normal saline, followed by test of antibody titers by agar diffusion method, and finally was stored in a refrigerator at −20° C. for later use.
(§2) Except the normal group, the mice of the remain five groups are injected with anti-mouse platelet serum (APS) of the guinea pig with a dose of 100 μl/20 g body weight, via intraperitoneal injection, on the 1st, 3rd, 5th, 7th, 9th, 11th and 13th day of the experiment.
(§3) The mice of each group are given intragastric administration from the first day. […] The mice of the prednisone acetate group are given intragastric administration of suspension of prednisone acetate at 5 mg/(kg·d). The mice of other groups are given intragastric administration of same volumetric of normal saline at 0.2 ml/20 g body weight. Intragastric administration for once each day, and continuous administration for 14 days.
Observation of the Subcutaneous Purpura:
Class I, minor bleeding are found at injection sites, and hemorrhagic spots are interspersed at other sites;
Class II, overt bleeding are found at injection sites, and ecchymosis and petechiae are found at other sites;

ITP model mice [2] = format: in vivo, BALB/C mice; details: 5 mg/kg intragastric
Protocol: as §1, §2
The mice of each group are given intragastric administration from the first day. The mice of the dencichine high dose, middle-dose and low dose groups are given intragastric administration at […] respectively. The mice of the prednisone acetate group are given intragastric administration of suspension of prednisone acetate at 5 mg/(kg·d). The mice of other groups are given intragastric administration of same volumetric of normal saline at 0.2 ml/20 g body weight. Intragastric administration for once each day, and continuous administration for 14 days.
20 μl Blood was collected from orbital veins of each mouse of each group before Modeling and on 14th test day respectively, and dropped into anticoagulative tubes, then platelet count was detected by an automated blood analyzers.

[3] = format: in vivo, BALB/C mice; details: 5 mg/(kg·d) intragastric
Protocol: as §1, §2, §3
The weights of mice of each group are respectively measured before modeling, on 7th test day, and on 14th test day.

female mouse = details: Zhao Guoqiang et al., 1984; cited from earlier work
[4] = test system: rats suffering thrombopenia induced by carboplatin; assay: Platelet count of rats suffering thrombopenia induced by multiple injections of carboplatin; format: in vivo, Wistar rats; details: 260 μg/kg s.c., carboplatin model
Protocol: (§4) 81 rats are prepared and randomly divided into eight groups: • blank control group, • high-dose group A (4 mg/kg, intraperitoneal injection, non modeling), • model group (40 mg/kg, tail vein injection), • interleukin-11 group (260 μg/kg, subcutaneous injection), • high dose group B (4 mg/kg, intraperitoneal injection, modeling), • high dose group (4 mg/kg, intraperitoneal injection), • middle dose group (1 mg/kg, intraperitoneal injection), and • low dose group (0.25 mg/kg, intraperitoneal injection),
(§5) wherein, the Model group has 11 rats, and the other groups has 10 rats respectively. Before the experiment, the animals are asked to adapt the environment for 2 days, and then blood is taken from their tails for detecting hematological index.
(§6) After administration for 10 days, blood is taken from tails of rats from blank control group, high-dose group A, and positive drug group respectively for detecting hematological index.
(§7) Thereafter, all animals, except for those of blank group and high-dose group A, are individually injected with carboplatin (40 mg/kg) for modeling, and followed by successive administration for 15 days. During these 15 days, the rats of high-dose group A and high dose group B are stopped from administration, and taken blood from the tail on 5th day, 10th day and 15th day after the modeling respectively for detecting hematological indices. After 15th day of modeling, carboplatin (40 mg/kg) is injected again for a second modeling, and all the groups take successive administration according to the foregoing method, once a day for successive 10 days. Before each hematological indices detection, animals are weighed respectively. Taking the tails' blood of rats on 5th day after the second injection of carboplatin for detecting hematological indices, and taking the tails' blood of rats on 10th day after the second injection of carboplatin for detecting the indices of hematology, reticulocytes and coagulation; and weighing animals and killing them; and weighing liver, thymus, spleen and adrenal gland taken from the dead rats, and calculating out viscera indices; further taking out marrow for doing pathological examination.

[5] = Organ index of rats suffering thrombopenia induced by carboplatin; format: in vivo, Wistar rats
Protocol: as §4, §7

[6] = Body weight of rats suffering thrombopenia induced by carboplatin; format: in vivo, Wistar rats; details: for body weight: 260 μg/kg s.c., carboplatin model
Protocol: as §4, §5, §6, §7

[7] = test system: rats with thrombocytopenia caused by carboplatin; assay: Platelet count of rats with thrombocytopenia caused by carboplatin, different prophylactic administration time; format: in vivo, rat
[8] = 5th day after first injection of carboplatin
[9] = 5th day after second injection of carboplatin
[10] = 10th day after first injection of carboplatin
[11] = 10th day after second injection of carboplatin
[12] = 15th day after first injection of carboplatin
[13] = prophylactic administration for 10 days
[14] = 260 μg/kg s.c., carboplatin model

In the case of CC(=O)OCC(=O)[C@@]1(O)CC[C@H]2[C@@H]3CCC4=CC(=O)C=C[C@]4(C)[C@H]3C(=O)C[C@@]21C [Prednisone acetate, Prednisone Acetate, reference compound], the “Subcutaneous purpura, bleeding degree +” value (ITP model mice [1]) is reported as 6 number of mice, the “Subcutaneous purpura, bleeding degree ++” value (ITP model mice [1]) is reported as 2 number of mice and the “Subcutaneous purpura, bleeding degree +++” value (ITP model mice [1]) is reported as 0 number of mice. The “Subcutaneous purpura, bleeding degree −” value (ITP model mice [1]) was 0 number of mice, the platelet count (ITP model mice [2]; Before Modeling) was 756.9 ± 130.1 ×10^9/L and the platelet count (ITP model mice [2]; Day 14) was 579.0 ± 70.7 ×10^9/L. It also gave a body weight ([3]; Day 0) of 19.8 ± 2.1 g, a body weight ([3]; Day 7) of 19.5 ± 1.8 g and a body weight ([3]; Day 14) of 20.6 ± 1.7 g.

For N[C@H](CNC(=O)C(=O)O)C(=O)O [β-N-oxalyl-D-α, β-diaminopropionic acid, reference compound], the “effect on the hemostasis and increase of platelet count” value (female mouse) is listed as “significant effect”.

B1: Interleukin-11: Recombinant human interleukin-11 for injection, sterile lyophilized preparation, Qilu Pharmaceutical; positive drug (protein, UniProt P20809 22-199, looked up)
Interleukin-11: PGPPPGPPRVSPDPRAELDSTVLLTRSLLADTRQLAAQLRDKFPADGDHNLDSLPTLAMSAGALGALQLPGVLTRLRADLLSYLRHVQWLRRAGGSSLKTLEPELGTLQARLDRLLRRLQLLMSRLALPQPPPDPPAPPLAPPSSAWGGIRAAHAILGGLHLTLDWAVRGLLLLKTRL
For B1, the platelet count [4, 8] was 564.0 ± 126.1 ×10^9/L, the platelet count [4, 9] was 953.7 ± 265.8 ×10^9/L and the platelet count [4, 10] was 234.6 ± 77.9 ×10^9/L. For the same molecule, the platelet count [4, 11] was 290.7 ± 180.9 ×10^9/L, the platelet count [4, 12] was 1183.3 ± 92.5 ×10^9/L and the platelet count ([4]; before experiment) was 625.4 ± 124.92 ×10^9/L. For the same molecule, the platelet count [4, 13] was 761.6 ± 226.76 ×10^9/L, the “organ index, Adrenal gland” value [5, 14] was 0.04 ± 0.01 g/100 g body weight and the “organ index, Liver” value [5, 14] was 4.10 ± 0.30 g/100 g body weight. The “organ index, Spleen” value [5, 14] was 0.39 ± 0.05 g/100 g body weight, the “organ index, Thymus gland” value [5, 14] was 0.14 ± 0.05 g/100 g body weight and the “index of livers, spleens, suprarenal glands compared with the blank control group” value ([5]; interleukin-11 group) was “obvious increases”. For the same molecule, the body weight [6, 8] was 267.6 ± 41.79 g, the body weight [6, 9] was 294.6 ± 47.61 g and the body weight [6, 10] was 287.1 ± 41.57 g. The body weight [6, 11] was 291.7 ± 52.46 g, the body weight [6, 12] was 298.3 ± 44.22 g and the body weight ([6]; before experiment) was 186.7 ± 9.63 g. The body weight [6, 13] was 268.8 ± 32.65 g, the “body weight and state” value ([6]; 280 μg/kg subcutaneous injection, beginning of the experiment) was “obvious body weight loss” and the “platelet count compared with that of model group” value ([7]; prophylactic administration for 3 days) was “no significant difference”. The platelet count ([7]; prophylactic administration for 3 days, after prophylactic administration) was 820.7 ± 155.13 ×10^9/L, the platelet count ([7]; prophylactic administration for 3 days, initial value) was 736.3 ± 175.56 ×10^9/L and the platelet count ([7]; prophylactic administration for 3 days, injection of carboplatin for 10 days) was 88.5 ± 51.49 ×10^9/L. For the same molecule, the “platelet count compared with that of model group” value ([7]; prophylactic administration for 5 days and 7 days) was “increase the platelet count”, the platelet count ([7]; prophylactic administration for 5 days, after prophylactic administration) was 759.5 ± 145.34 ×10^9/L and the platelet count ([7]; prophylactic administration for 5 days, initial value) was 724.0 ± 178.87 ×10^9/L. The platelet count ([7]; prophylactic administration for 5 days, injection of carboplatin for 10 days) was 178.3 ± 57.08 ×10^9/L, the platelet count ([7]; prophylactic administration for 7 days, after prophylactic administration) was 860.5 ± 113.92 ×10^9/L and the platelet count ([7]; prophylactic administration for 7 days, initial value) was 732.3 ± 197.06 ×10^9/L. The platelet count ([7]; prophylactic administration for 7 days, injection of carboplatin for 10 days) was 179.5 ± 26.76 ×10^9/L.
